Experimental findings from patent publication US20230220080A1 are described below.

As usually defined, the EC50 is the concentration at which the effect is half-maximal.

For the assay, the target named is B lymphoma cell lines Raji or Daudi (CD20 and CD22). The assay is described as follows: FACS on Raji cells, Alexa Fluor 488 anti-human IgG1, MFI; binder is a 1:1 mixture.

Turning to Epratuzumab/ Ofatumumab (1:1), the EC50 was determined as 3.25 nM.
